According to US20260250410A1 (SICHUAN HUIYU PHARMACEUTICAL, published 2026):

T1: HuCDCP1-A (human, UniProt Q9H5V8 30-430)
T1 construct: range 30-430; expressed in HEK-293T, purified by Fc/his tag; also called human CDCP1-A; membrane-distal region of CDCP1; not shown: Fc or his tag
T1 sequence (looked up): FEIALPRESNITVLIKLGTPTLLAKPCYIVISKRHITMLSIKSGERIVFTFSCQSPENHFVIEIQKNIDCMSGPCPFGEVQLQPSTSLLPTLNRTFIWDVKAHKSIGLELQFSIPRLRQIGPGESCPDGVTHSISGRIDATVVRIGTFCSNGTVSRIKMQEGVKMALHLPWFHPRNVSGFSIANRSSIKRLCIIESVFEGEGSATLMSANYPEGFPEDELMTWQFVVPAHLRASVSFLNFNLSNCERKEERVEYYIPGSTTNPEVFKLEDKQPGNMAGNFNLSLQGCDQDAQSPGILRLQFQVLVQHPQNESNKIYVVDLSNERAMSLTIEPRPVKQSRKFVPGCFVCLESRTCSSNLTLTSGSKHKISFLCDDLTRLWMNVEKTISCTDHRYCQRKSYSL

T2: RatCDCP1 (rat, UniProt D3ZVA1 29-666)
T2 construct: extracellular domain; not shown: Fc or his tag
T2 sequence: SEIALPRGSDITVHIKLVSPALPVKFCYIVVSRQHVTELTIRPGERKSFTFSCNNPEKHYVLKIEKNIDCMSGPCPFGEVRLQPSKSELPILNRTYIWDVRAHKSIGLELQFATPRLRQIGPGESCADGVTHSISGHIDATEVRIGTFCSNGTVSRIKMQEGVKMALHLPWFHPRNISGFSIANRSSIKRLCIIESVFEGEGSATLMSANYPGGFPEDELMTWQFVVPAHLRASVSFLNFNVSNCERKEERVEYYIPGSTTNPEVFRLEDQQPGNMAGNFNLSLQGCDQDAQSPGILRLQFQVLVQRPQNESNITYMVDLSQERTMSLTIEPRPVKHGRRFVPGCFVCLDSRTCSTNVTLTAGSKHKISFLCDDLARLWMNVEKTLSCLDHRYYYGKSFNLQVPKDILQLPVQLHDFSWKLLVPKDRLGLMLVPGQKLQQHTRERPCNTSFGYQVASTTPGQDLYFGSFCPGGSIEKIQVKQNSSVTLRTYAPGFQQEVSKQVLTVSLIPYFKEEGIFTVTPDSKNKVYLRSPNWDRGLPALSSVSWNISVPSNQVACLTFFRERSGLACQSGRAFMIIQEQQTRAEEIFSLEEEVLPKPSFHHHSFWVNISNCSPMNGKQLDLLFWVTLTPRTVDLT

T3: CynoCDCP1 (Macaca fascicularis, UniProt A0A2K5VLA8 30-667)
T3 construct: extracellular domain; also called Macaca fascicularis CDCP1; monkey CDCP1; not shown: Fc or his tag
T3 sequence: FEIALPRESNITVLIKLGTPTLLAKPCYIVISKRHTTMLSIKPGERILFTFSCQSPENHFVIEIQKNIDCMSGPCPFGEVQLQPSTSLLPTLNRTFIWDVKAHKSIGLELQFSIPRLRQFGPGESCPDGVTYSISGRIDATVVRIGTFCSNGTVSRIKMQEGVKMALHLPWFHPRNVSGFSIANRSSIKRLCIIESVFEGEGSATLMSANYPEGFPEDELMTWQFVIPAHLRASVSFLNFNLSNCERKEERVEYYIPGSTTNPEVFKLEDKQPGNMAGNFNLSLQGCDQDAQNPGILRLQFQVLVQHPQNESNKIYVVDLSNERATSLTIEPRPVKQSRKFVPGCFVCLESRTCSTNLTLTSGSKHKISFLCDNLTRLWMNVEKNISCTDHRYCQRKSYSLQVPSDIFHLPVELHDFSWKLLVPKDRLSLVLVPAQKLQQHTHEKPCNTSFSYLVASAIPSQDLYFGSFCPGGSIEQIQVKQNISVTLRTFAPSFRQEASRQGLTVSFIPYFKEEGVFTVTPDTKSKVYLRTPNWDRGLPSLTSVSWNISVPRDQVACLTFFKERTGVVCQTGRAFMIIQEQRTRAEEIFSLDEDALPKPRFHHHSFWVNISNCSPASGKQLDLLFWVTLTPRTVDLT

T4: HuCDCP1-C (human, UniProt Q9H5V8 30-667)
T4 construct: range 30-667; expressed in HEK-293T, purified by Fc/his tag; also called human CDCP1-C; full-length extracellular domain of human CDCP1; not shown: Fc or his tag
T4 sequence (looked up): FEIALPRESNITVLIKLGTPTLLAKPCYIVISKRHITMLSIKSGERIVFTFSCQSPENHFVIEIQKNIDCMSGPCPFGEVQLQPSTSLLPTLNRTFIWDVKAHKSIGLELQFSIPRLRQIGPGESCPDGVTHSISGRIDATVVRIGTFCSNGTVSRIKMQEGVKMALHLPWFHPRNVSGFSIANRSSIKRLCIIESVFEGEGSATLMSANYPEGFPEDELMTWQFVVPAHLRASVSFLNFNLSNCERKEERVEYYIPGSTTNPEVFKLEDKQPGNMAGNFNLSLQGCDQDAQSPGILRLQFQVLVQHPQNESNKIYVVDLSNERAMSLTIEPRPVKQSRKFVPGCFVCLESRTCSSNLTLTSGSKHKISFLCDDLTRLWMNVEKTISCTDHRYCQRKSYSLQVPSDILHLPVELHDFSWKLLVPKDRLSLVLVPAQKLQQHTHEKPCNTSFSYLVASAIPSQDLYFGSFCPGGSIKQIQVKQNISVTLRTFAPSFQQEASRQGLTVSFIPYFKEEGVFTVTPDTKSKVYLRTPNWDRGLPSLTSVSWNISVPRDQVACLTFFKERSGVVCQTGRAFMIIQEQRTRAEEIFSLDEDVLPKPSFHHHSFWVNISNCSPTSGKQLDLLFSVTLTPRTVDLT


Legend:
Assay in all cases: SPR (Caterra or Biacore), antigen immobilized
HuCDCP1-A = biological target: T1, HuCDCP1-A
RatCDCP1 = biological target: T2, RatCDCP1
CynoCDCP1 = biological target: T3, CynoCDCP1
HuCDCP1-C = biological target: T4, HuCDCP1-C

EC50 (HuCDCP1-A) | EC50 (RatCDCP1) | EC50 (CynoCDCP1) | EC50 (HuCDCP1-C) | Binder | binding result (HuCDCP1-A) | binding result (RatCDCP1)
79.3 nM | 50.5 nM | 0.0516 nM | 0.105 nM | 8E5 (antibody, V domains shown, murine hybridoma mAb; also called 8ES) VH: EVQLKESGPELKKPGETVKISCKASGYTLTDFSMHWLKQAPGKGLKWMGWINTETGAPTYADDFKGRFALSLDTSANTAYLQINNLKNEDTATYFCSRGRDYDPHFDYWGQGTTVTVSS VL: EIVLTQSPATLSVTPGDRVSLSCRASQSISDFLHWYQQRSHESPRLLIKYASQSISGIPSRFGGSGSGSDFTLNINTVEPEDVGMYYCQSAHSFPYTFGGGTKLEIK | – | –
– | – | 4.47 nM | 5.63 nM | G10F6 (antibody, V domains shown, murine hybridoma mAb) VH: EVKLVESGPGILQPSQTLSLTCSFSGFSLSTSGMGVSWVRQPSGKGLEWLAHIYWDDDKRYNPSLKGRLTISKDTPRNQVFLEITSVDTTDTATYYCARVPGNWDEDAMDYWGQGTTVTVSS VL: DIQMTQSPLSLPVSLGDQASISCRSSQNIVHTNGNTYLEWYLQKVGQSPKLLIYKVSNRFSGVPDRFSGSGSGTDFTLKISRVEAEDLGVYYCFQGSHVPYTFGGGTKLEIK | no binding (tested: 150 nM highest concentration) | no binding (tested: 150 nM highest concentration)
– | – | 98.3 nM | 2.02 nM | 14A10C5 (antibody, V domains shown, murine hybridoma mAb; also called 14A10CS) VH: EVKLVESGPGILQPSQTLSLTCSFSGFSLSTSGMGVSWIRQPSGKGLEWLAHIYWDDEKRYNPSLKSRLTISKDTSSNQVFLKITSVDTADTATYYCAREGSANWEAMDYWGQGTTVTVSS VL: DIVMTQAALSLPVSLGDQASISCRSSQNIVYTNGITYLEWYLQKPGQSPKLLIYKVSNRFSGVPDRFSGSGSATDFTLKISRVEAEDLGVYYCFQSSHVPWTFGGGTKLEIK | no binding (tested: 150 nM highest concentration) | no binding (tested: 150 nM highest concentration)
0.747 nM | 41.1 nM | 16.1 nM | 0.705 nM | 10D2 (antibody, V domains shown, murine hybridoma mAb) VH: EVQLQQSGPELKKPGETVKISCKASGYTFTDYSMHWVKQAPGKGLKWMGWINTETGQPTYADDFKGRFAFSLETSASSAYLQINNLKNEDTATYFCTRTFYYDYVGDYWGQGTTVTVSS VL: DIVMTQSHKFMSTSVGDRVSITCKASQDVSTAVAWYRQKPGQSPKLLIYWASTRHTGVPDRLTGSGSGTDFALTINSVQAEDLALYYCQQHSSTPYTFGGGTKLEIK | – | –
1.67 nM | – | 1.45 nM | 0.0634 nM | 12E6 (antibody, V domains shown, murine hybridoma mAb) VH: EVQLKESGPGILQPSQTLSLTCSFSGFSLSTSGMGVGWIRQPSGKGLEWLAHIWWDDVKLYNPALKSRLTISKETSNNQVFLKIASVDAADTATYYCARIDHGYGSNYWDFDVWGAGTTVTVSS VL: DIVMTQAAPSVPVTPGGSVSISCRSTKSLLHSDGKTYLYWFLQRPGQSPQLLIYRMSNLASGVPDRFSGSGSGTAFTLRISRVEAEDVGVYYCMQHLEYPFTFGSGTKLEIK | – | no binding (tested: 150 nM highest concentration)
127 nM | 17 nM | 115 nM | 37.9 nM | 3F1A11 (antibody, V domains shown, murine hybridoma mAb) VH: EVKLVESGPGLVKPSQSLSLTCTVTGYSITSDYAWNWIRQFPGNKLEWMGYISYNTYTSYNPSLKSRISVTRDTSKNQFFLQLKSVTIEDTATYFCAGGDYYGTGAVDYWGQGTTVTVSS VL: EIVLTQSPLSLPVSLGDQASISCRSRQTLVHTNGNTYLDWYLQKPGQSPKLLIYKVSIRFSGVPDRFSGSRSGTDFTLKISRVEAEDLGIYYCFQGSHVPWTFGGGTKLEIK | – | –
– | – | 23.6 nM | 3.96 nM | 3C11 (antibody, V domains shown, murine hybridoma mAb) VH: EVQLQQSGTVLARPGASVKMSCKASGYNFISYWLHWIKQRPGQGLEWIGGIYPGNTDTTYNQKFKGKAKVTAVTSATTAYMELSSLTNEDSAVYYCIRYDYDRGMDYWGQGTTVTVSS VL: DIQMTQSPSSFSVSLGDRVTITCRASEDIYYRLAWYQQKPGNAPRLLISGATALETGVPSRFSGSGSGKDYTLSITSLQTEDVATYYCQHYWNIPWTFGGGTKLEIK | no binding (tested: 150 nM highest concentration) | no binding (tested: 150 nM highest concentration)
52.3 nM | – | 4.5 nM | 0.723 nM | 3B12H5 (antibody, V domains shown, murine hybridoma mAb; also called 3B12HS) VH: EVQLQQSGTVLARPGASVKMSCKASGYSFTIYWVHWVKQRPGQGLEWIGAVYPGNDDTSYNQNFKGKAKLTAVTSATTAYMELSSLTIDDSAVYYCTRHTYDEVFDYWGQGTTVTVSS VL: DIVMTQSPSSLSVSLGDRVTITCKASEDIYYRLAWYQQKPGNAPRLLISGGTNLEAGIPSRFSGSGSGKDYTLSITSLQTEDVAIYYCQHYWNTPWTFGGGTKLEIK | – | no binding (tested: 150 nM highest concentration)
– | 91.4 nM | 9.96 nM | 9.65 nM | 6A7 (antibody, V domains shown, murine hybridoma mAb) VH: EVQLKESGAELVRPGASVKVSCKASGYSFTSYWMNWVKQRPGQGLEWIGMIHPSDSETKLNQKFRDRASLTVDKSSSTAYMQLSSPTSEDSAVYYCTINYESFYYAMDYWGQGTTVTVSS VL: DIVMTQSPASLAVSLGQRATISCRASKSVSTSGYSYMHWYQQKPGQPPKLLLYLASNLESGVPARFSGSGSGADFTLNIHPVEEEDAATYYCLHSRELPYTFGGGTKLEIK | no binding (tested: 150 nM highest concentration) | –
– | 18 nM | 0.136 nM | 1.19 nM | 5B8 (antibody, V domains shown, murine hybridoma mAb) VH: EVQLKESGGGLVQPGGSLRISCATSGLTFTHYHMSWVRQPPGKAPEWLAIIRNKAYGYTTDYSASVRGRFTISRDDSQSILYLQMNTLRAEDSATYYCVREGGYGYDGTFAYWGQGTTVTVSS VL: not shown | no binding (tested: 150 nM highest concentration) | –
– | 30.5 nM | 0.564 nM | 1.72 nM | 8C9 (antibody, V domains shown, murine hybridoma mAb) VH: EVQLKESGGGLVQPGGSLRISCATSGLTFTHYHMSWVRQPPGKAPEWLAIIRNKAYGYTTDYSASVRGRFTISRDDSQSILYLQMNTLRPEDSATYYCVREGGYGYDGTFAYWGQGTTVTVSS VL: not shown | no binding (tested: 150 nM highest concentration) | –
